Experimental data published in patent US20250215412A1 (NOVOZYMES A S, published 2025).
Residue numbers refer to the chain shown, from its start. Numbers in names are those of the source.

Target: T1, Chryseobacterium sp-62563 deamidase polypeptide (second polypeptide, deamidase domain), wildtype (Chryseobacterium sp-62563)
T1 sequence: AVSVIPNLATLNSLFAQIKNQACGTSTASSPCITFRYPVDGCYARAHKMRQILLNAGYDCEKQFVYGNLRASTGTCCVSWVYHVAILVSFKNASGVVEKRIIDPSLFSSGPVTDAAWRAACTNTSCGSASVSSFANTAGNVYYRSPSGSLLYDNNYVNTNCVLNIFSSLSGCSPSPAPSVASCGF
Test: cell-based or functional assay

B1: Chryseobacterium sp-62563 propeptide Y94K (protein)
chain: NQDPNLVAKESNETAMKDFGKTVPVGIEKEDGKFKISFMVTAQPYEIKDSKENAAYISMIKTAVENETPIHVFLKANTNEIAKVDKATDDDIRKFKSVFTKEVKEENRK
With B1 the Relative activity of maturated deamidase (% initial rate) was 49.

B2: Chryseobacterium sp-62563 propeptide I92S (protein)
chain: B1 chain with I92S, K94Y
In the case of B2, the Relative activity of maturated deamidase (% initial rate) is reported as 40.

B3: Chryseobacterium sp-62563 propeptide I92M (protein)
chain: B1 chain with I92M, K94Y
Work on B3 yielded a Relative activity of maturated deamidase (% initial rate) of 38.

B4: Chryseobacterium sp-62563 propeptide I92L (protein)
chain: B1 chain with I92L, K94Y
For B4, the Relative activity of maturated deamidase (% initial rate) was 31.

B5: Chryseobacterium sp-62563 propeptide I92K (protein)
chain: B1 chain with I92K, K94Y
With B5 the Relative activity of maturated deamidase (% initial rate) was 32.

B6: Chryseobacterium sp-62563 propeptide I92G (protein)
chain: B1 chain with I92G, K94Y
Binder B6 has a Relative activity of maturated deamidase (% initial rate) of 69.

B7: Chryseobacterium sp-62563 propeptide I92A (protein)
chain: B1 chain with I92A, K94Y
B7 showed a Relative activity of maturated deamidase (% initial rate) of 31.

B8: Chryseobacterium sp-62563 propeptide D91S (protein)
chain: B1 chain with D91S, K94Y
B8 was tested, and the Relative activity of maturated deamidase (% initial rate) was 48.

B9: Chryseobacterium sp-62563 propeptide D91Q (protein)
chain: B1 chain with D91Q, K94Y
For B9, the Relative activity of maturated deamidase (% initial rate) was 28.

B10: Chryseobacterium sp-62563 propeptide D91M (protein)
chain: B1 chain with D91M, K94Y
B10 was tested, and the Relative activity of maturated deamidase (% initial rate) was 31.

B11: Chryseobacterium sp-62563 propeptide D91H (protein)
chain: B1 chain with D91H, K94Y
B11 showed a Relative activity of maturated deamidase (% initial rate) of 64.

B12: Chryseobacterium sp-62563 propeptide D91G (protein)
chain: B1 chain with D91G, K94Y
Binder B12 has a Relative activity of maturated deamidase (% initial rate) of 56.

B13: Chryseobacterium sp-62563 propeptide T88V (protein)
chain: B1 chain with T88V, K94Y
Binder B13 has a Relative activity of maturated deamidase (% initial rate) of 51.

B14: Chryseobacterium sp-62563 propeptide T88R (protein)
chain: B1 chain with T88R, K94Y
In the case of B14, the Relative activity of maturated deamidase (% initial rate) is reported as 46.

B15: Chryseobacterium sp-62563 propeptide T88K (protein)
chain: B1 chain with T88K, K94Y
Binder B15 has a Relative activity of maturated deamidase (% initial rate) of 33.

B16: Chryseobacterium sp-62563 propeptide T88I (protein)
chain: B1 chain with T88I, K94Y
In the case of B16, the Relative activity of maturated deamidase (% initial rate) is reported as 52.

B17: Chryseobacterium sp-62563 propeptide T88H (protein)
chain: B1 chain with T88H, K94Y
Work on B17 yielded a Relative activity of maturated deamidase (% initial rate) of 41.

B18: Chryseobacterium sp-62563 propeptide T88G (protein)
chain: B1 chain with T88G, K94Y
With B18 the Relative activity of maturated deamidase (% initial rate) was 66.

B19: Chryseobacterium sp-62563 propeptide T88F (protein)
chain: B1 chain with T88F, K94Y
For B19, the Relative activity of maturated deamidase (% initial rate) was 28.

B20: Chryseobacterium sp-62563 propeptide F73E (protein)
chain: B1 chain with F73E, K94Y
With B20 the Relative activity of maturated deamidase (% initial rate) was 28.

B21: Chryseobacterium sp-62563 propeptide E67W (protein)
chain: B1 chain with E67W, K94Y
B21 was tested, and the Relative activity of maturated deamidase (% initial rate) was over 100.

B22: Chryseobacterium sp-62563 propeptide E67V (protein)
chain: B1 chain with E67V, K94Y
Work on B22 yielded a Relative activity of maturated deamidase (% initial rate) of 27.

B23: Chryseobacterium sp-62563 propeptide E67T (protein)
chain: B1 chain with E67T, K94Y
B23 gave a Relative activity of maturated deamidase (% initial rate) of 40.

B24: Chryseobacterium sp-62563 propeptide E67S (protein)
chain: B1 chain with E67S, K94Y
B24 was tested, and the Relative activity of maturated deamidase (% initial rate) was 42.

B25: Chryseobacterium sp-62563 propeptide E67R (protein)
chain: B1 chain with E67R, K94Y
B25 was tested, and the Relative activity of maturated deamidase (% initial rate) was 95.

B26: Chryseobacterium sp-62563 propeptide E67M (protein)
chain: B1 chain with E67M, K94Y
B26 showed a Relative activity of maturated deamidase (% initial rate) of 37.

B27: Chryseobacterium sp-62563 propeptide E67L (protein)
chain: B1 chain with E67L, K94Y
B27 gave a Relative activity of maturated deamidase (% initial rate) of 55.

B28: Chryseobacterium sp-62563 propeptide E67K (protein)
chain: B1 chain with E67K, K94Y
Binder B28 has a Relative activity of maturated deamidase (% initial rate) of over 100.

B29: Chryseobacterium sp-62563 propeptide E67I (protein)
chain: B1 chain with E67I, K94Y
Work on B29 yielded a Relative activity of maturated deamidase (% initial rate) of 31.

B30: Chryseobacterium sp-62563 propeptide E67H (protein)
chain: B1 chain with E67H, K94Y
Work on B30 yielded a Relative activity of maturated deamidase (% initial rate) of 78.

B31: Chryseobacterium sp-62563 propeptide E67G (protein)
chain: B1 chain with E67G, K94Y
In the case of B31, the Relative activity of maturated deamidase (% initial rate) is reported as 54.

B32: Chryseobacterium sp-62563 propeptide E67F (protein)
chain: B1 chain with E67F, K94Y
For B32, the Relative activity of maturated deamidase (% initial rate) was 46.

B33: Chryseobacterium sp-62563 propeptide E67D (protein)
chain: B1 chain with E67D, K94Y
B33 showed a Relative activity of maturated deamidase (% initial rate) of 69.

B34: Chryseobacterium sp-62563 propeptide E67C (protein)
chain: B1 chain with E67C, K94Y
B34 showed a Relative activity of maturated deamidase (% initial rate) of 46.

B35: Chryseobacterium sp-62563 propeptide E67A (protein)
chain: B1 chain with E67A, K94Y
B35 gave a Relative activity of maturated deamidase (% initial rate) of 46.

B36: Chryseobacterium sp-62563 propeptide E65P (protein)
chain: B1 chain with E65P, K94Y
In the case of B36, the Relative activity of maturated deamidase (% initial rate) is reported as 30.

B37: Chryseobacterium sp-62563 propeptide S58P (protein)
chain: B1 chain with S58P, K94Y
For B37, the Relative activity of maturated deamidase (% initial rate) was 42.

B38: Chryseobacterium sp-62563 propeptide Y56P (protein)
chain: B1 chain with Y56P, K94Y
Work on B38 yielded a Relative activity of maturated deamidase (% initial rate) of 32.

B39: Chryseobacterium sp-62563 propeptide Y45L (protein)
chain: B1 chain with Y45L, K94Y
For B39, the Relative activity of maturated deamidase (% initial rate) was 65.

B40: Chryseobacterium sp-62563 propeptide M39Y (protein)
chain: B1 chain with M39Y, K94Y
Work on B40 yielded a Relative activity of maturated deamidase (% initial rate) of over 100.

B41: Chryseobacterium sp-62563 propeptide M39W (protein)
chain: B1 chain with M39W, K94Y
B41 was tested, and the Relative activity of maturated deamidase (% initial rate) was 44.

B42: Chryseobacterium sp-62563 propeptide M39S (protein)
chain: B1 chain with M39S, K94Y
B42 showed a Relative activity of maturated deamidase (% initial rate) of over 100.

B43: Chryseobacterium sp-62563 propeptide M39Q (protein)
chain: B1 chain with M39Q, K94Y
B43 was tested, and the Relative activity of maturated deamidase (% initial rate) was over 100.

B44: Chryseobacterium sp-62563 propeptide M39N (protein)
chain: B1 chain with M39N, K94Y
For B44, the Relative activity of maturated deamidase (% initial rate) was 39.

B45: Chryseobacterium sp-62563 propeptide M39H (protein)
chain: B1 chain with M39H, K94Y
Work on B45 yielded a Relative activity of maturated deamidase (% initial rate) of over 100.

B46: Chryseobacterium sp-62563 propeptide M39G (protein)
chain: B1 chain with M39G, K94Y
In the case of B46, the Relative activity of maturated deamidase (% initial rate) is reported as over 100.

B47: Chryseobacterium sp-62563 propeptide M39F (protein)
chain: B1 chain with M39F, K94Y
In the case of B47, the Relative activity of maturated deamidase (% initial rate) is reported as 45.

B48: Chryseobacterium sp-62563 propeptide M39E (protein)
chain: B1 chain with M39E, K94Y
B48 showed a Relative activity of maturated deamidase (% initial rate) of 95.

B49: Chryseobacterium sp-62563 propeptide F38G (protein)
chain: B1 chain with F38G, K94Y
B49 was tested, and the Relative activity of maturated deamidase (% initial rate) was over 100.

B50: Chryseobacterium sp-62563 propeptide F38D (protein)
chain: B1 chain with F38D, K94Y
For B50, the Relative activity of maturated deamidase (% initial rate) was over 100.

B51: Chryseobacterium sp-62563 propeptide E30W (protein)
chain: B1 chain with E30W, K94Y
Work on B51 yielded a Relative activity of maturated deamidase (% initial rate) of 27.

B52: Chryseobacterium sp-62563 propeptide V25C (protein)
chain: B1 chain with V25C, K94Y
Work on B52 yielded a Relative activity of maturated deamidase (% initial rate) of 96.

B53: Chryseobacterium sp-62563 propeptide V23Y (protein)
chain: B1 chain with V23Y, K94Y
For B53, the Leakage activity was 0% and the Relative activity of maturated deamidase (% initial rate) was 56.

B54: Chryseobacterium sp-62563 propeptide K21G (protein)
chain: B1 chain with K21G, K94Y
In the case of B54, the Leakage activity is reported as 0% and the Relative activity of maturated deamidase (% initial rate) is reported as 53.
